For this series, the target named is T1, PpPutA45 (Pseudomonas putida, UniProt Q9R9T7 1-45).
T1 chain: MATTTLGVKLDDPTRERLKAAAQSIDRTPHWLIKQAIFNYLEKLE
The series can be described thus: EMSA.

B1: O2-12 (dsDNA)
DNA 1: GCGGTTGCACCT
DNA 2: AGGTGCAACCGC
In the case of B1, the binding result is “no binding”.

The record behind these values is paper PMC2650008.
